Assay results reported in patent US20040213788A1 (published 2004).
Blank lines part the entries; values can stand above or below the binder they belong to.

What was measured:
[1] = molecular target: T1, soluble human RANKL protein (human, UniProt O14788 140-317, limits assumed, biotinylated at a 20:1 molar ratio of NHS-biotin to protein (in the competition ELISA only)); test: cell-based or functional assay
T1 sequence (looked up): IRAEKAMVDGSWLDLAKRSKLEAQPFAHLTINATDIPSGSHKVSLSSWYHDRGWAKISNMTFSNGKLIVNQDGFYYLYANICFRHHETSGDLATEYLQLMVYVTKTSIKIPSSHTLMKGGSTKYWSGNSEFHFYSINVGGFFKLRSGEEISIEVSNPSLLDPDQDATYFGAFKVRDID

[2] = molecular target: T1, soluble human RANKL protein; test: not described; paragraph 32 names optical biosensor analysis for Kd
[3] = molecular target: T1, soluble human RANKL protein; test: competition ELISA: inhibition of biotinylated shRANKL (0.43 nM) binding to coated RANK-Fc
From the text: (§1) A. A competition ELISA was established using a human RANK-Fc fusion protein coated on plastic and a biotinylated soluble human RANKL protein for detection in solution. The RANK-FC and RANKL proteins were produced in CHO cells and Pichia pastoris, respectively, and purified to >90% homogeneity. The shRANKL (soluble, human RANKL) protein was biotinylated at a 20:1 molar ratio of NHS-biotin to protein (Pierce, Rockford, Ill.) according to the manufacturer's specifications. 96-well ELISA plates were coated overnight at 4° C. with 50 ng/well ([…]) RANK-Fc in pH 9.6 carbonate-bicarbonate buffer. Plates were washed in pH 7.4 Tris-Saline buffer containing 0.1% Tween 20 and blocked for 2 h at RT in 1% BSA/PBS. Competitor proteins (RANK-Fc; death receptor 5 (DR5)-Fc; OPG-Fc; RANKL mAb 14F3) were diluted in 0.01% Tween 20/PBS and added to wells prior to the addition of biotinylated shRANKL (0.43 nM) and the combined samples were incubated for 2 hrs at room temperature. The amount of biotinylated shRANKL bound to coated RANK-Fc (+/−competitor) was measured using alkaline phosphatase conjugated streptavidin. The substrate for signal detection was 105 PNPP (Pierce Inc., Rockford, Ill.) and absorbence measured at 405 nm using a Spectra Max 340 plate reader.

[4] = molecular target: T1, soluble human RANKL protein; test: competition ELISA: soluble RANK-Fc inhibits biotinylated shRANKL (0.43 nM) binding to coated RANK-Fc
From the text: as §1

Kd [2]: ~0.1 nM | IC50 [3]: ~2 nM
B1: mouse monoclonal antibody 14F3 (antibody, V domains shown)
VH: EVQLVESGGDLVKPGGSLKLSCAASGFTFSRYGMSWVRQTPDKRLEWVATISSGGSYTYYPDSVKGRFTISRDNAKNTLYLQMSSLKSEDTAMYYCARLDGYNYRWYFDVWGTGTTVTVSS
VL: DIVMTQSHKFMSTSVGDRVSITCKASQDVSSAVAWYQQKPGQSPKLLIYSASYRYTGVPDRFTGSGSGTDFTFTISSVQAEDLAVYYCQQHYSSPRTFGGGTNLEIKR
notes: Whole mouse IgG2a/kappa purified from hybridoma; also called 14F3 mAb; RANKL mAb 14F3
IC50, formation of multinuclear cells (human monocyte osteoclastogenesis) [1]: ~4 µg/mL

IC50 [4]: ~6 nM
B2: human RANK-Fc fusion protein (Fc fusion, UniProt Q9Y6Q6 30-212, looked up, not shown: a dimerising Fc or GST)
chain: IAPPCTSEKHYEHLGRCCNKCEPGKYMSSKCTTTSDSVCLPCGPDEYLDSWNEEDKCLLHKVCDTGKALVAVVAGNSTTPRRCACTAGYHWSQDCECCRRNTECAPGLGAQHPLQLNKDTVCKPCLAGYFSDAFSSTDKCRPWTNCTFLGKRVEHHGTEKSDAVCSSSLPARKPPNEPHVYLP
IC50, formation of multinuclear cells (human monocyte osteoclastogenesis) [1]: ~0.5 µg/mL

IC50 [3]: ~0.5 nM
B3: OPG-Fc (Fc fusion, UniProt O00300 22-201, looked up)
chain: ETFPPKYLHYDEETSHQLLCDKCPPGTYLKQHCTAKWKTVCAPCPDHYYTDSWHTSDECLYCSPVCKELQYVKQECNRTHNRVCECKEGRYLEIEFCLKHRSCPPGFGVVQAGTPERNTVCKRCPDGFFSNETSSKAPCRKHTNCSVFGLLLTQKGNATHDNICSGNSESTQKCGIDVTL
notes: also called osteoprotegerin-Fc; not shown: Fc part; not described
